Experimental findings from patent US11629364B2, “Methods for synthesizing anticoagulant polysaccharides” (OPTIMVIA, LLC, priority 2019, dated 2023) are described below.

Format in all cases: biochemical
The nature of data set [1]: 2OST activity: 2-O sulfated products detected by LCMS after lyase digestion. The following applies: procedures of Example 3; expected. On the procedure:
A study was conducted in accordance with embodiments of the present disclosure to confirm 2OST activity of enzymes comprising the amino acid sequence of SEQ ID NO: 14 or SEQ ID NO: 16 by detecting the presence of 2-O sulfated polysaccharide products formed as a result of their sulfotransfer reaction, using a similar procedure as in Example 2, except that the sulfo acceptor polysaccharide was commercial heparin in which the 2-O sulfate groups had been selectively removed by chemical means (product DSH001/2, available from Galen Laboratory Supplies) and analysis of each of the digested samples containing sulfated products was conducted using mass spectrometry, coupled with SAX-based high performance liquid chromatography (LCMS).
Disaccharides obtained by digesting the 2-O sulfated products using the carbon-oxygen lyases having the amino acid sequence of SEQ ID NO: 30, SEQ ID NO: 31, and SEQ ID NO: 32 and according to the procedure described above in Example 2 were quantified on a Shimadzu LCMS-8050 Triple Quadrupole Liquid Chromatograph Mass Spectrometer. 100 ng of each of the digested samples, diluted in 10 mM ammonium bicarbonate (pH 10). The disaccharides were separated on a Thermo Hypercarb HPLC column (100×2.1 mm, 5 μm). […]

The nature of data set [2]: 3OST activity: 3-O sulfated products detected by LCMS after lyase digestion. On the procedure:
A study was conducted in accordance with embodiments of the present disclosure to confirm 3OST activity of enzymes comprising the amino acid sequence of SEQ ID NO: 24, SEQ ID NO: 26, or SEQ ID NO: 28 by detecting the presence of 3-O sulfated polysaccharide products as a result of their sulfotransfer reaction, using a reaction, using a similar LCMS procedure as in Example 3, except that the sulfo acceptor polysaccharide was commercially-available heparin (CAS code: 9041-08-1, available from Millipore Sigma). Even though the unmodified heparin contains ˜3.5% (w/w) of 3-O sulfated glucosamine residues, about ˜60% of the glucosamine residues are N,6-sulfated and are adjacent to a 2-O sulfated hexuronic acid residue, as in Formula X. Consequently, these N,6-sulfated glucosamine residues can still be 3-O sulfated.

A short description of data set [3]: 3OST activity confirmed by 1H NMR. The following applies: PNS as aryl sulfate compound. The method, then: Each enzyme was purified according to the procedure of Example 1. To each purified protein solution, 20 mg of an aryl sulfate compound (PNS or NCS) dissolved in 2 mL of reaction buffer (50 mM MES pH 7.0, 2 mM CaCl2)) was added to the protein solution and incubated at 37° C. for 10 min. 2.5 mL of 2 mg/mL solution of the commercial heparin polysaccharide utilized in Example 5 was added to protein/donor solution and incubated overnight at 37° C.
Each reaction was centrifuged at 5,000×g for 10 min, applied to a pre-wetted 30K MWCO Amicon-15 filter and centrifuged at 5,000×g for 10 min. The filter was washed once with 2 mL water, and centrifuged again. The filtrate was added to a 1K MWCO Dialysis membrane, dialyzed for 2 days in Milli-Q water, with water changes at 1 h, 2 h, 8 h, 16 h, 32 h, and then lyophilized. The dry, white powder was resuspended in 400 μL D20, lyophilized to remove exchangeable protons, then resuspended in 600 μL D2O and transferred to NMR tubes (Wilmad, 0.38 mm×7″). To determine if sulfotransfer took place, ^1H NMR spectra were obtained on a Bruker 600 MHz NMR, 32 scans, with water suppression. Within FIG. 30, the 3-O positions of any of the glucosamine residues can be sulfated by the 3OST enzyme. The sulfated 3-O position is circled in the central polysaccharide. […]

B1: SEQ ID NO: 41: mutant of the human 2OST enzyme carrying the SEQ ID NO: 14 mutations (protein)
chain: MDEEEDMVIIYNRVPHTASTSFTNIAYDLCAKNKYHVLHINTTKNNPVMSLQDQVRFVKNITSWKEMKPGFYHGHVSYLDFAKFGVKKKPIYINVIRDPIERLVSYYYHLRFGDDYRPGLRRRKQGDKKTFDECVAEGGSDCAPEKLWLQIPFFCGHSSECWNVGSRWAMDQAKYNLINEYFLVGVTEELEDFIMLLEAALPRFFRGATELYRTGKKSHLHKTTEKKLPTKQTIAKLQQSDIWKMENEFYEFALEQFQFIRAHAVREKDGDLYILAQNFFYEKIYPKSN
modifications: Amino acid sequence encoding for engineered arylsulfate-dependent 2-O-sulfotransferase variant 3
Turning to B1, in data set [1], the “2OST activity: N,2-HS products by MS” value is recorded as “confirm the presence of N,2-HS products”.

B2: SEQ ID NO: 42: mutant of the human 2OST enzyme carrying the SEQ ID NO: 16 mutations (protein)
chain: MDEEEDMVIIYNRVHRTASHSFTNIAYDLCAKNKYHVLHINTTKGNPVMSLQDQVRFVKNITSWKEMKPGFYHGPVSYLDFAKFGVKKKPIYINVIRDPIERLVSYYYFLRFGSDKRPGLRMRKQGDKKTFDECVAEGGSDCAPEKLWLQIPFFCGHSSECWNVGSRWAMDQAKYNLINEYFLVGVTEELEDFIMLLEAALPRFFRGATELYRTGKKSHLHKTTEKKLPTKQTIAKLQQSDIWKMENEFYEFALEQFQFIRAHAVREKDGDLYILAQNFFYEKIYPKSN
modifications: Amino acid sequence encoding for engineered arylsulfate-dependent 2-O-sulfotransferase variant 4
Regarding B2, in data set [1], the “2OST activity: N,2-HS products by MS” value is listed as “confirm the presence of N,2-HS products”.

B3: SEQ ID NO: 26: engineered aryl sulfate-dependent 3OST enzyme, mutant of isoform 1 of the human 3OST enzyme (protein)
chain: MGTASNGSTQQLPQTIIIGVGHGGTRALLEMLSLHPDVAAAENEVHFFDWEEHYSQGLGWYLTQMPFSSPHQLTVEKTHSYFTSPKVPERIHSMNPTIRLLLILRDPSERVLSAYTHMLYNHLQKHKPYPPIEDLLMRDGRLNLDYTGLNRSLYHAHMLNWLRFFPLGHIHIVDGDRLIRDPFPEIQKVERFLKLSPQINASNFYFNKTKGFYCLRDSGKDRCLHESKGRAHPQVDPKLLDKLHEYFHEPNKKFFKLVGRTFDWH
modifications: Amino acid sequence encoding for engineered arylsulfate-dependent 3-O-sulfotransferase variant 2
notes: engineered aryl sulfate-dependent 3OST enzyme, mutant of isoform 1 of the human 3OST enzyme
Turning to B3, the “3OST sulfotransferase activity with NCS” value in data set [2] (NCS as aryl sulfate compound) was “active as a sulfotransferase”. Besides, the “abundance of 3-O sulfation in product” value in data set [2] (relative to the commercial heparin standard) is reported as “higher abundance of 3-O sulfation”. Also, the “3OST sulfotransferase activity with PNS (NMR)” value in data set [3] was 3-O sulfotransferase activity.
